{"source": "patent US20210277141A1", "about": "(ORIMABS, published 2021)", "binders": {"B1": {"name": "gy1 scFv (secreted by yeast strain YVH10) (scFv)", "scFv": "QSVLTQPPSVSGAPGQSVIISCTGSSSNIGAGSHVHWYQQVPGTAPKLLIYGNTNRPSGVPDRFSGSKSGTSGSLAITGLQPEDEADYYCATWDDSLNGVIFGGGTKVTVLGGSSRSSSSGGGGSGGGGEVQLVESGGALAKPGGSLRLSCAASGSTLSGYAMHWVRQAPGKGLEWVAVISYDGSNKYYADSVKGRFTISRDNSKNTLFLQMNSLRPEDTAVYYCAKGLTWGLGDNDALDIWGPGTTVTVSS", "notes": "also called scFv gy1; anti-PSMA scFv gy1; not shown: Flag tag at the N terminus; V5 tag at the C terminus; 6xHis tag at the C terminus"}, "B2": {"name": "E. coli expressed gy1 scFv (pET302-gy1, BL21) (scFv)", "scFv": "B1 scFv", "notes": "also called E. coli expressed scFv gy1; not shown: His tag (purified on HisTrp HP column, detected with anti-6His)"}, "B3": {"name": "PSMAb-DM1 (antibody, human IgG1, lambda, V domains shown)", "VH": "EVQLVESGGALAKPGGSLRLSCAASGFTLSGYAMHWVRQAPGKGLEWVAVISYDGSNKYYADSVKGRFTVSRDNSKNTLFLQMNSLRPEDTAVYYCAKGLTWGLGDNDALDIWGPGTTVTVSS", "VL": "QSVLTQPPSVSGAPGQSVIISCTGSSSNIGAGSHVHWYQQVPGTAPKLLIYENTNRPSGVPDRFSGSKSGTSGSLAITGLQPEDEADYYCATWDDSLNGVIFGGGTKATVLG", "modifications": "DM1 through SMCC linker, drug/Ab conjugation ratio 3.3 per antibody; conjugated residues and chain not stated", "notes": "also called PSMAb-ADC; PSMAb conjugate with DM1"}, "B4": {"name": "PSMAb (full IgG1 antibody engineered from gy1-2 scFv) (antibody, V domains shown)", "VH": "B3 VH", "VL": "B3 VL", "notes": "IgG1 heavy constant region and lambda light constant region; expressed in CHO-S cells; also called PSMAb full antibody"}, "B5": {"name": "PSMAb-MMAF (antibody, human IgG1, lambda, V domains shown)", "VH": "B3 VH", "VL": "B3 VL", "modifications": "MC-vc-PAB-MMAF after partial reduction with TCEP, drug loading 3.03 per antibody; conjugated residues and chain not stated", "notes": "also called PSMAb-ADC; PSMAb conjugate with MMAF"}, "B6": {"name": "PSMAb-MMAE (antibody, human IgG1, lambda, V domains shown)", "VH": "B3 VH", "VL": "B3 VL", "modifications": "MC-vc-PAB-MMAE after partial reduction with TCEP, drug loading 3.5 per antibody; conjugated residues and chain not stated", "notes": "also called PSMAb-ADC; PSMAb conjugate with MMAE"}}, "key": {"[1]": {"target": "T1, biotinylated recombinant extracellular domain of human PSMA (human, UniProt Q04609 44-750, biotinylated with EZ-Link Sulfo-NHS-Biotin (protein:biotin 1:20); residues not stated)", "T1 construct": "Bought from R&D systems; also called biotinylated PSMA; biotinylated PSMA protein", "T1 sequence (Q04609 44-750)": "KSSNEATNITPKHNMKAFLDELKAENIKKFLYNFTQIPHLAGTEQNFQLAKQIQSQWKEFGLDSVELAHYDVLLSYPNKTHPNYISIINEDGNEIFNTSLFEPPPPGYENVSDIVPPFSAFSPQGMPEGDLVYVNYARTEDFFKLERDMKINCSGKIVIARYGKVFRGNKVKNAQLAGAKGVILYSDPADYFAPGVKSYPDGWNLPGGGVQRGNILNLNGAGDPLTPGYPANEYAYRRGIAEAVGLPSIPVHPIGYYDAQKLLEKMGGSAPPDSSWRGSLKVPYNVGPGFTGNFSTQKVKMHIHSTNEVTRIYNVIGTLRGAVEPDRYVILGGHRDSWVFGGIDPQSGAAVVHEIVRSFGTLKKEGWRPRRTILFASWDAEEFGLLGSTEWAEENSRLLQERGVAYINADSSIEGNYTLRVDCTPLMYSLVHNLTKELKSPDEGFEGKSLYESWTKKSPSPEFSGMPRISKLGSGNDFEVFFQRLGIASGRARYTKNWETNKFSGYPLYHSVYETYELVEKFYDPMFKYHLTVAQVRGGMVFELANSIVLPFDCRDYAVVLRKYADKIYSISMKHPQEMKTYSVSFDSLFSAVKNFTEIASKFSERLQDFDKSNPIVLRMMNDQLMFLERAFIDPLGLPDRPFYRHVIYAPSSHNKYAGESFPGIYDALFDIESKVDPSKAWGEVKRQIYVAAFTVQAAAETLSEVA", "test": "capture ELISA: scFv (100 nM to 0.137 nM) captured on anti-Flag, 0.5 µg/ml biotinylated PSMA, streptavidin-HRP; GraphPad Prism", "experimental": "(§1) Briefly, anti-Flag antibody (Sigma) was coated on ELISA plate at 4° C. overnight in PBS. […] Plate was then washed and incubated with biotinylated PSMA and the binding was detected with streptavidin-HRP, and analyzed by colorimetric development using TMB and then stop buffer. Absorbance at OD450 was measured and the affinity was calculated using GraphPad Prism software.\n(§2) There is a Flag tag and a V5 tag at the N and C terminus of scFv, and thus antibodies to these tags were used to capture the scFv for ELISA assay. Briefly, anti-Flag antibody (Sigma) was coated on ELISA plate at 1 μg/ml, 50 μl/well at 4° C. overnight in PBS. […] Plate was washed 6 times with PBST and then incubated with 0.5 μg/ml biotinylated PSMA in PBS™ for 1 more hour at RT. After 6 washes, plate was incubated with 1:1000 diluted streptavidin-HRP (BD Bioscience) in PBS™ at RT for 30 min. Plate was washed again for 6 times and incubated with TMB for 20 min at RT, colorimertric reaction was stopped with stop buffer and the absorbance was read at OD450."}, "[2]": {"target": "T1, biotinylated recombinant extracellular …", "test": "capture ELISA: anti-Flag coated, gy1 scFv in 3-fold dilutions, 0.5 ug/ml biotinylated PSMA, streptavidin-HRP, TMB", "experimental": "as §1, §2"}, "[3]": {"target": "T2, PSMA (form not stated; as named in the summary sentence of paragraph 43) (UniProt Q04609 44-750, limits assumed)", "T2 construct": "The summary sentence gives neither the assay nor the form of PSMA, so the value could not be assigned to m8, m9 or m10; also called prostate specific membrane antigen", "T2 sequence (Q04609 44-750 limits assumed)": "as the sequence (Q04609 44-750) above", "test": "not stated (summary sentence in the description)"}, "[4]": {"target": "T3, Prostate specific membrane antigen (PSMA) expressed on cell surface (human, UniProt Q04609 1-750)", "T3 construct": "whole, on cells; In the cell ELISAs the C4-2 cells were fixed with 4% paraformaldehyde; also called cell surface PSMA; PSMA+ cells (LNCaP, LNCap FGC, C4-2, PC3-PSMA+)", "T3 sequence (Q04609 whole entry)": "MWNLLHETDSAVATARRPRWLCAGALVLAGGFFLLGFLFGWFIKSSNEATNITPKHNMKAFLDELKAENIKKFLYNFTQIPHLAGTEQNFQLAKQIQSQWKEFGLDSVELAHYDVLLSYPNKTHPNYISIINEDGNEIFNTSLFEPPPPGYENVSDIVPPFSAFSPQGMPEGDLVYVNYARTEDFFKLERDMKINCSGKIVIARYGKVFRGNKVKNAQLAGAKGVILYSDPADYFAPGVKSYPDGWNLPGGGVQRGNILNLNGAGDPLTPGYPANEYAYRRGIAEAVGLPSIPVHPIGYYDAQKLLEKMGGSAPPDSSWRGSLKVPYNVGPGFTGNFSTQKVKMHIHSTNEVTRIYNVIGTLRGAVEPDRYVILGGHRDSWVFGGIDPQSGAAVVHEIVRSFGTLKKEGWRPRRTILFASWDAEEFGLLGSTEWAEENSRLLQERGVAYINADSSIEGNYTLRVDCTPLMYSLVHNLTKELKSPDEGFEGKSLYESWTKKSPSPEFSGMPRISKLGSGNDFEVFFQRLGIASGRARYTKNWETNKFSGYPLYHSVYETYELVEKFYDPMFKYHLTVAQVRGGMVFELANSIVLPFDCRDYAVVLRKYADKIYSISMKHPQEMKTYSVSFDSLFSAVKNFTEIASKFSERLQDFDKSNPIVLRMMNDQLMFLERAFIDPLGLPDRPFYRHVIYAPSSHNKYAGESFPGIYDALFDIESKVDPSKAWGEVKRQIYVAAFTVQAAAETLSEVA", "test": "cell ELISA on fixed C4-2 cells, 8100 nM to 0.005 nM, HRP anti-6His; one-site binding hyperbola", "experimental": "(§3) Briefly, C4-2 cultured in 96-well plate were fixed with 4% paraformaldehyde, blocked with 3% H₂O₂ and 6% bovine serum albumin sequentially. […] Cell binding was detected with HRP-conjugated mouse anti-6His and colorimetric signals were developed by TMB and stopped by STOP buffer.\n(§4) The next day, cells were fixed with 4% paraformaldehyde for 20 min before being treated with 3% H₂O₂ for 20 minutes to block endogenous peroxidase followed by blocking with 6% bovine serum albumin for 30 min at room temperature. […] Cells were then washed with PBST and incubated with HRP-conjugated mouse anti-6His antibody (AbD Serotec, Bio-Rad, Oxford, UK) for 1h at room temperature. Colorimetric signals were developed by addition of 3, 3′, 5, 5′-tetramethylbenzidine (TMB, eBioscience, CA, USA) and stopped by incubation with 1 M […] for 15 minutes. The absorbance was measured at 450 nm using a Sunrise microplate reader (Tecan, Groedig, Austria) and the binding curves were analyzed using GraphPad Prism 5.0 software."}, "[5]": {"target": "T3, Prostate specific membrane antigen …", "test": "cell ELISA on fixed C4-2 cells; 3-fold dilutions, 1 h, 37 °C; detection with HRP mouse anti-6His, TMB", "experimental": "as §3, §4"}, "[6]": {"target": "T3, Prostate specific membrane antigen …", "test": "cell-based or functional assay"}, "[7]": {"target": "T3, Prostate specific membrane antigen …", "test": "cell ELISA on fixed C4-2 cells, 100 nM to 0.19 pM, HRP anti-human IgG Fc"}, "[8]": {"target": "T3, Prostate specific membrane antigen …", "test": "cell ELISA on fixed C4-2 cells; 3-fold dilutions from 100 nM to 0.19 pM; detection with HRP anti-human IgG Fc, TMB"}}}
{"binder": "B1", "values": [{"measurement": "Kd", "setting": "[1]", "result": 1.17, "unit": "nM"}, {"measurement": "EC50 (read off the curve)", "setting": "[2]", "result": "~1", "unit": "nM"}, {"measurement": "Kd", "setting": "[3]", "result": 0.9, "unit": "nM"}]}
{"binder": "B2", "values": [{"measurement": "Kd", "setting": "[4]", "result": 4.13, "unit": "nM"}, {"measurement": "EC50 (read off the curve)", "setting": "[5]", "result": "~300", "unit": "nM"}]}
{"binder": "B3", "values": [{"measurement": "IC50 of cytotoxicity on C4-2 cells (alamarBlue, 4 days)", "setting": "[6]", "result": 0.12, "unit": "nM"}]}
{"binder": "B4", "values": [{"measurement": "Kd", "setting": "[7]", "result": 0.1, "unit": "nM"}, {"measurement": "EC50 (read off the curve)", "setting": "[8]", "result": "~0.1", "unit": "nM"}]}
{"binder": "B5", "values": [{"measurement": "IC50 of cytotoxicity on C4-2 cells (alamarBlue, 4 days)", "setting": "[6]", "result": 0.92, "unit": "nM"}]}
{"binder": "B6", "values": [{"measurement": "IC50 of cytotoxicity on C4-2 cells (alamarBlue, 4 days)", "setting": "[6]", "result": 0.59, "unit": "nM"}]}
